{"source": "paper PMC12279188", "target": "KSHV gB653-mut ectodomain (Kaposi's sarcoma-associated herpesvirus (KSHV), strain GK18) (UniProt F5HB81)", "experiment": "cryo-EM structure"}
{"substance": "KSHV gB653-mut ectodomain (from UniProt F5HB81 27-653) (domain or fragment)", "values": [{"measurement": "stoichiometry N", "value": 3}]}
